# Reference: the RNAGym collection of RNA variant scans (doi:10.7554/elife.80360)
# B1: Hammerhead Ribozyme (parent)
# chain: ACCGGAUGUGCUUUCCGGUCUGAUGAGUCCGUGAGGACGAAACAG
# Variants of: B1
# Experiment: self-cleavage, relative activity (ratio to wild type); higher = more cleavage; co-transcriptional
row,Variant,self-cleavage
1,ACCGGAUGUGCUUUCCGGUCUGAUGAGUCCCUGAGGACGAGACAG [G31C A41G],0.374
2,ACCGGAUGUGCUUACCGGUCUGAUGAGUCCGUGUGGACGAAACAG [U14A A34U],0.903
3,UCCGGAUGUGCCUUCCGGUCUGAUGAGUCCGUGAGGACGAAACAG [A1U U12C],0.546
4,ACCGGAUGUGCUUUCCGGUCUGAUGAGUCCGUGUGGACGACACAG [A34U A41C],0.289
5,ACAGGAUGUGCUUUCCGGUCUGAUGACUCCGUGAGGACGAAACAG [C3A G27C],0.422
6,ACCGGAUGUGCUUUCCGGUUUGAUGAGUCCCUGAGGACGAAACAG [C20U G31C],0.489
7,ACCGGAUCUGCUUUCCGGUGUGAUGAGUCCGUGAGGACGAAACAG [G8C C20G],0.288
8,ACCCGAUGAGCUUUCCGGUCUGAUGAGUCCGUGAGGACGAAACAG [G4C U9A],0.613
9,ACCGGACGUGCUUUCCGGUCUGAUGAGUCCCUGAGGACGAAACAG [U7C G31C],0.803
10,ACCGGAUGUGCGUUCCGGUCUGAUGAGUCCGUGUGGACGAAACAG [U12G A34U],0.897
11,ACCGAAUGUGCUUUCCGGUCUGAUGAGUCCGUAAGGACGAAACAG [G5A G33A],1.44
12,ACCGGAUGUGCUUUCAGUUCUGAUGAGUCCGUGAGGACGAAACAG [C16A G18U],0.525
13,ACCGGAUGUGCUUUACGGUCUGAUGAGUCCGUGAGGACGAAACCG [C15A A44C],0.404
14,ACCCGAUGUUCUUUCCGGUCUGAUGAGUCCGUGAGGACGAAACAG [G4C G10U],0.722
15,ACCGGAUGUGCUUUCCGGUCUCAUGAGUCCGUGAGGACGAACCAG [G22C A42C],0.309
16,ACCGGAUGUGCAUUCCGGUCUGAUGAGUCCGUGAGGACGGAACAG [U12A A40G],0.315
17,ACCGGAUGUGCUUUCCGCUCUGAUGAGUCCAUGAGGACGAAACAG [G18C G31A],0.649
18,ACCGGAUGUGCUUACCGGUCUGAUGAGUCCGUGAGGACAAAACAG [U14A G39A],0.359
19,ACCGUAUGUGCUUUUCGGUCUGAUGAGUCCGUGAGGACGAAACAG [G5U C15U],1.17

row,Variant,self-cleavage
1,ACCCGAUGUGCUUUCCGGUCUGAUGAGUCCGUGAGGACGAAACGG [G4C A44G],0.805
2,ACCGGAUGUGCUGUCCAGUCUGAUGAGUCCGUGAGGACGAAACAG [U13G G17A],0.876
3,ACCGGAUGUACUUUCCUGUCUGAUGAGUCCGUGAGGACGAAACAG [G10A G17U],0.986
4,ACCGGAUGUGCUUUCCGGUCUGAUGAGUCCAUGAGGGCGAAACAG [G31A A37G],0.978
5,ACCGGAUGUGCUUUCCGGUCUAUUGAGUCCGUGAGGACGAAACAG [G22A A23U],0.343
6,ACCGGUUGUGAUUUCCGGUCUGAUGAGUCCGUGAGGACGAAACAG [A6U C11A],0.831
7,ACCGGAUGUGCUUUCCGGUCUGAUGGGUCCGUGCGGACGAAACAG [A26G A34C],0.346
8,ACCGGAUGUGCUUUGCGGUUUGAUGAGUCCGUGAGGACGAAACAG [C15G C20U],0.453
9,ACCGGAUGUGCUUUGCGAUCUGAUGAGUCCGUGAGGACGAAACAG [C15G G18A],0.378
10,ACCGUAUGUGCUUUCAGGUCUGAUGAGUCCGUGAGGACGAAACAG [G5U C16A],1.11
11,ACCGGGUGUGCUUUCCGGUCUGAUGAGUCCGGGAGGACGAAACAG [A6G U32G],0.431
12,ACCGGAUGUACUUUCCGGUCUGAUGAGUCCGUGAGGACGAAACAA [G10A G45A],0.9
13,AUCGGGUGUGCUUUCCGGUCUGAUGAGUCCGUGAGGACGAAACAG [C2U A6G],0.927
14,ACCGGAUGUGCUUUCCGGUCGGAUGAGCCCGUGAGGACGAAACAG [U21G U28C],0.381
15,ACCGGAAGUGCUUUCCGGUCUGAUGAUUCCGUGAGGACGAAACAG [U7A G27U],0.32
16,ACCGGAUGUGCUUUCCGGUCUGAUGAGACUGUGAGGACGAAACAG [U28A C30U],0.562
17,ACCGGAUGUGCCUUCAGGUCUGAUGAGUCCGUGAGGACGAAACAG [U12C C16A],0.908
18,ACCGGAUGUGCUUUCCGGUCUGAUGAGUCCGUGUGAACGAAACAG [A34U G36A],0.437
19,ACCGGAUGUGCUUUCCGGUCUGAUGAGUCCGUGAGGCCGAAAGAG [A37C C43G],0.28

row,Variant,self-cleavage
1,ACCGGCUGUGCUUUCCGCUCUGAUGAGUCCGUGAGGACGAAACAG [A6C G18C],0.311
2,ACGGGAUGUGCUUUCCGGUCUGAUGAGUCCGAGAGGACGAAACAG [C3G U32A],0.639
3,ACCGGAUGUGCUGUCCGGUCUGAUGAGUCCGUGAGGAUGAAACAG [U13G C38U],0.724
4,ACCGGAUGUGCUUUCCGGUCAGACGAGUCCGUGAGGACGAAACAG [U21A U24C],0.329
5,ACCGGAUGUGCUUUCCGGUCUGAUGAAUCCGUGAGGACUAAACAG [G27A G39U],0.348
6,ACCGGAUGUUCAUUCCGGUCUGAUGAGUCCGUGAGGACGAAACAG [G10U U12A],0.87
7,ACCGCAUGUGCCUUCCGGUCUGAUGAGUCCGUGAGGACGAAACAG [G5C U12C],0.703
8,ACCGGAGGUGCUUUCCGGUCUGAUGAGUCCUUGAGGACGAAACAG [U7G G31U],1.18
9,ACCGGCUGUGCCUUCCGGUCUGAUGAGUCCGUGAGGACGAAACAG [A6C U12C],0.899
10,ACCGCAUGUGCUUUCCGGUCUGAUGAGUCCGUGAGGACGAAAGAG [G5C C43G],0.33
11,ACAGGAUGUGCUUUCCGGUCUGAUGAGUCCGUGACGACGAAACAG [C3A G35C],0.324
12,ACCGGAUGUGCUUGCCGGUCUGAUGAGUCCGUGAGGACGAAACAA [U14G G45A],0.708
13,ACCGGAUGUGUUUUCCGGUCUCAUGAGUCCGUGAGGACGAAACAG [C11U G22C],0.339
14,ACCGGAUGUGCUUUCCGGCCUGAUGAGUCCGUGAGGACGAACCAG [U19C A42C],0.237
15,ACCGGAUGUGCUUUCCGGUGUGAUGAGUCCGGGAGGACGAAACAG [C20G U32G],0.28
16,ACCGGAUGUGCUUUCCGGUCUGAUGAGACCGUGAGGACGAAACUG [U28A A44U],0.402
17,ACCGGGUGUGCUUUCCGGUCUGAUUAGUCCGUGAGGACGAAACAG [A6G G25U],0.194
18,ACCGGAUGUGCUUUGCGGUCUGAUGAGUGCGUGAGGACGAAACAG [C15G C29G],0.485
19,ACCGGAUGUCCUUUCCGGUCUGAUGAGUCCGGGAGGACGAAACAG [G10C U32G],0.638
